Experiment: label from the status in PepcDB records
With “MSMKKQFALFSTLLLLGSSMPVGAFAEGNNLVAENSSVAETTAEATTAEATETTATSETTEATEESTTETESSTESSESATTESTETSGTETTDSTTDSTSTSTTESTTDSTSTSTTESTTDSTSTSTTESSTTPTTTPSSSKEQPKPGTSTSESKQPAKPVTPTAPAEKPVEQPAASTPQPEIVPPVTNETVGLVEDDETFTVSKTKKTEEFIQEIGESARKVAKDKNLYASVMIAQAILESGSGNSKLSQKPNYNLFGIKGDYKGQSVSFITYEDNGFGNLYTVEAKFRQYPTYKESMEDYAKLLKNGLDSNKDFYHGVWKTEAKSYKEATRFLTGKYATDKDYHKKLNALIKTYDLTYYDKEKATVEPMESNFPAYNGKNYDTFNSYAWGNCTQYVYNRITQLGKRVDLTMGNGQDWGETGRARGYKVSRTPKAGAAVSFPAGVLGADNTYGHVAFVEKVFKDGSILISEMNVKGLNVVSTRTISADETHLMNYIVPKDK” the protein production was “failed”.
In the case of “MSMLKKTKEFFGLAPYEAEHEDAYYADEPRYEGTAAYAPEYRERDYGYAPEAPAPVAPSPAPRSYQSTIVPVELHSFEDAQVIGGAFRDGDAVVFDMSLLSREEARRIVDFAAGLCFALRGKMQKIDSVTFAVVPELSNISTSELERAARIRLEHHHHHH”, the protein production is reported as “not failed”.
For “MSNAITMGIFWHLIGAASAACFYAPFKKVKKWSWETMWSVGGIVSWIILPWAISALLLPNFWAYYSSFSLSTRLPVFLFGAMWGIGNINYGLTMRYLGMSMGIGIAIGITLIVGTLMTPIINGNFDVLISTEGGRMTLLGVLVALIGVGIVTRAGQLKERKMGIKAEEFNLKKGLVLAVMCGIFSAGMSFAMNAAKPMHEAAAALGVDPLYVALPSYVVIMGGGAIINLGFCFIRLAKVKDLSLKADFSLAKSLIIHNVLLSTLGGLMWYLQFFFYAWGHARIPAQYDYISWMLHMSFYVLCGGIVGLVLKEWNNAGRRPVTVLSLGCVVIIVAANIVGIGMAN”, the protein production was “failed”.
With “MSNANQKITTFLMFEGKAEEAMNFYTSLFDQSEIVSISRYDENGPGKEGTVIHATFTLNGQEFMCIDSYVNHNFTFTPAMSLYVTCETEEEIDTVFHKLAQDGAILMPLGSYPFSKKFGWLNDKYGVSWQLTLAE” the protein production was “not failed”.
In the case of “MSNEHTRPPLPPFTRESAIEKVRLAEDGWNTREPEKIALAYTVDTQWRNRAEFANNREEARDFLTRKWKKELDYRLIKELWAFTDNRIAVRYAYEWHDDSGNWFRSYGNENWEFEADGLMHRRFACINDMPIKESERKFHWPLGRRPDDHPGLTELGLLEHHHHHH”, the protein production is reported as “failed”.
With “MSNEMYYVQASDPAILEKGECGGAVTALFKYLLDKGIVDGVLALKKGVDVYDAIPTFVTSSEDLLSTAGSLHCAPTMWGGIIKEYLQDAKIAVPVKPCDMRAIVELAKRAQINLDNVYMIGLNCGGTVPPKTAMEMIKLFYEVDPKDVVKEEIDKGKFIIVMNDGSHKEVKMHDLEDNGYGRRVNCQRCDEKIPRKADIAAGNWGVIGEDAGKYTFMEVCTEKGKQLLEDAEKDGYIKKKSPNPKGIEIRAKVESSMLKMGEDYKNKWLEEEYPTIEEWNRQWNKCIKCYGCRDVCPVCFCRECALNADYLDSGSIPPNPIMFQGVRMSHMAFSCVNCGQCEDVCPMEIPVARIFHKVQEKTRKELGYRPGVDDEAPPALGGSCPTQ” the protein production was “failed”.
For “MSNGGLSIDEKEGLIDKDEVMIRRMKNRERQRRYRARKRMREEEAGNDDNLSFETMGKQEEEEEEDEGLEFNGPSGYVENFVRRVYCDRNWKKEARRAHLIMNKAQDSSCESVKRKIRPHRRDWKAEARKKKT”, the protein production was “failed”.
With “MSNGIVIIGSGFAARQLVKNIRKQDATIPLTLIAADSMDEYNKPDLSHVISQGQRADDLTRQTAGEFAEQFNLHLFPQTWVTDIDAEARVVKSQNNQWQYDKLVLATGASAFVPPVPGRELMLTLNSQQEYRACETQLRDARRVLIVGGGLIGSELAMDFCRAGKAVTLIDNAASILASLMPPEVSSRLQHRLTEMGVHLLLKSQLQGLEKTDSGIQATLDRQRNIEVDAVIAATGLRPETALARRAGLTINRGVCVDSYLQTSNTDIYALGDCAEINGQVLPFLQPIQLSAMVLAKNLLGNNTPLKLPAMLVKIKTPELPLHLAGETQRQDLRWQINTERQGMVARGVDDADQLRAFVVSEDRMKEAFGLLKTLPM” the protein production was “failed”.
In the case of “MSNGTPQKTKLHFPHTYALIFFIIILAALASYFIPSGEFKRVEEDGQTVIVQGSYKQTDAGPVGFFEMFKAIPEGMIQSADIIFYIFLIGGAFGIIHQTGMIRAGVHVLVQRLKKRGFLLIPVTMFVFSIGGATIGLSEETIIFIPIGIAVARALGYDSMTGLAMISLGAAAGFTGGMLNPFTVGIAQTIAEVPVFSAFGYRLAVYAAMLGFSIFYVMRYAQQVKAHPNTGLMYGSETEINEETAAGHADLSFTGRHGLVLLITALGFGINMFGVFQWGWFLSELSAGFLIIGFAAGLAGGRGINNTFHSFVDGMKQVVYGALIVGFARAIVIVLENGHIIDTIINSLASAISSLPNEISAIGMFAVQIAINTFIPSGSGQAATTMPLMAPLADLLGFERQIAVFAYQYGDGITNSIIPTSGVLLASLSIAGVPYERWVKFVWKLIAGWIIIGAAAIVIAMIIGIK”, the protein production is reported as “failed”.
For “MSNIECVMFDCDGTLVDSEVLCCRAYVVMFAHYDIHLSLEEVIKRFKGVKLNEIVARVSQENGLDEPIEKLEKLYRAEVARLFDAELQPIAGAKALLEQITLPVCVVSNGPVSKMQHSLGLTGLLPFFEDKLYSGYDIQRWKPDPTLIYHAAEKMHVAAERCILVEDSAAGTHAGIAAGIPVYYYCADPHNQPIHHPLVTMFDDMQQLPDLWRERGWQITSH”, the protein production was “failed”.
For “MSNKLLLVFALIGIIVVFSCGLFLPIPIGYRVSMLTAGVIMSVVFSIIIPFDRKHIVRKKGNKIDFTKTKVYFRWNVFDTISVCLALYACICVQVLIFLVPMGFTIQNPYVQFFTNQSQLWVFIAIAYLISRISLTLKGIKEIKNHGADWD”, the protein production was “failed”.
In the case of “MSNKPASQQTRLTDWLIFLAVPFFFSSNVIFGRGVVGEVSPFIAAFIRWMGSTLIIAPFMIADWRNCLAFVRDKMLLWLVLGILGMGICGGVVYWGLTMTTAANGTLIYTTSSLFIILFQRIFQGRPIRKLEVAGMVIAFAGVAAIVLKGDISALRHMNFNIGDFAILTAAIAFAIYSLLLRDPAARQMASFSLFGLIAFSGALVLLPPAALELAQGGMLPATGAAWAKIGGIILFASLLAFYCFTHTVRVFGPATAGITLYMMPPVSILMATIFLGETFETYHAIGIVLVTGGVILATAPIGRKR”, the protein production is reported as “failed”.
With “MSNLISRILTALIFGFITLCLTWVGGTLFFLFVWVIGGFILYEWMSITKEKWHVLQKILASVFYLVFGAFLISNASASLIFCILIALAALLAIGPMRKSVWVFFGFLYVCFPVVALSFLRGHEPLGFWVVIFLFTIVWGTDIAGYFSGRAFGGPKLAPQFSPNKTWMGAIGGTFVGVSGGILIAFQFFDLNSAVFFVLLLALILSIVSQMSDLGQSWLKRQFSVKDSGSLLPGHGGFMDRMDGLVGAAFLLYLIGSFMSNMDTPFNLFCMV” the protein production was “failed”.
In the case of “MSNMEKHLFNLKFAAKELSRSAKKCDKEEKAEKAKIKKAIQKGNMEVARIHAENAIRQKNQAVNFLRMSARVDAVAARVQTAVTMGKVTKSMAGVVKSMDATLKTMNLEKISALMDKFEHQFETLDVQTQQMEDTMSSTTTLTTPQNQVDMLLQEMADEAGLDLNMELPQGQTGSVGTSVASAEQDELSQRLARLRDQV”, the protein production is reported as “not failed”.
In the case of “MSNNSKISWTTTTWNVTAGCDPISDGCKNCYARMMAERLKAMGQAKYQNGFIPTIHSECLNEPFGWKGNKLVFVVSMGDLFHKDIPFDFIDKVIEVITKCPQHTFQILTKRAERMYEYFSTHAIPENVWLGVTVENQKVKGRIDYLKKLDAPVRFLSCEPLLEDLGTLDLSDIDWVIVGGESGNRARKVEKDWILNIKSQCDASTSTAFFFKQWGTWGADGVKRSAKENGCLLDGKEYHAYPTPRKIKPLEHHHHHH”, the protein production is reported as “not failed”.
For “MSNSMLDKNKAILTGGGALLLGLIVLFYLAYRPKAEVLQGFLEAREYSVSSKVPGRIEKVFVKKGDHIKKGDLVFSISSPELEAKLAQAEAGHKAAKALSDEVKRGSRDETINSARDVWQAAKSQATLAKETYKRVQDLYDNGVASLQKRDEAYAAYESTKYNESAAYQKYKMALGGASSESKIAAKAKESAALGQVNEVESYLKDVKATAPIDGEVSNVLLSGGELSPKGFPVVLMIDLKDSWLKISVPEKYLNEFKVGKEFEGYIPALKKSTKFRVKYLSVMGDFATWKATNNSNTYDMKSYEVEAIPLEELENFRVGMSVLVTIKP”, the protein production was “failed”.
For “MSNSQWVPVSLNEYLAHLPMSDEQRAELASCTTFAELHERLSAQPVTDPAEAAQASVGRRLTLSADDLEDAEMLGVDASGRLCLKATPPIRRTKVVPEPWRTNILVRGWRRLTGKSNPPKPDHSDLPRDLPKSRWRTVGSIRRYILLILMLGQTIVAGSYMKGILPYQGWSLVSLDEITRQTFVQTALQVLPYALQTSILLLFGILFCWVSAGFWTALMGFLELLTGRDKYRISGASAGNEPIEAGARTALVMPICNEDVPRVFAGLRATFESVAATGNLDRFDFFVLSDTNETDIAVAEQQAWLDVCRETKGFGSIFYRRRRRRVKRKSGNLDDFCRRWGGEYRYMVVLDADSVMSGECLTSLVRLMEATPDAGIIQTAPRASGMDTLYARMQQFATRVYGPLFTAGLHFWQLGESHYWGHNAIIRMKPFIEHCALAPLPGKGAFAGAILSHDFVEAALMRRAGWGVWIAYDLPGSYEELPPNLLDELKRDRRWCHGNLMNFRLFLVKGMHPVHRAVFLTGVMSYLSAPLWFFFLVLSTALLAVNTLMEPTYFLEPRQLYPLWPQWHPERAVALFSTTIVLLFLPKLLSVILIWAKGAKGFGGKFKVTVSMLLEMLFSVLLAPVRMLFHTRFVLAAFLGWAATWNSPQRDDDSTPWLEAVKRHGPQTLLGACWALLVFWLNPSFLWWLAPIVVSLMLSIPVSVISSRTNLGLKARDEKFFLIPEEFEPPQELVSTDQYTHENRWHALKQGFIRAVVDPRQNALACALATSRHRQAQPIEVVRMERVDHALKVGPAKLDNQHRLMLLSDPVALGRLHERVWSEGHEEWLAAWRASIEADPHAPLLPLQPVVKAPEPVLV”, the protein production was “failed”.
For “MSNSSQYYTRTAQFLHWIMAIIFISAWIIGFYSGNFLNYETDGSFKGDVITLHKNIATTIIFLVMIRIFWRYTHPTPELPATMSPLMKKLAHLGHLALYVILIALPISGCFYSWSAGHPAPVLYLFNIPQLIGENPEIMAIAKPVHVYLSWFAGLMVAGHILAALKHHFIDKDNVLKSMIKQSR”, the protein production was “failed”.
With “MSNSTEPALAIITVTYSPGKHLGAFLSSVKEATAQPTYVVLADNGSVDGVPEAAAQADPSVEFFPTGGNIGYGSAINAAVRKLAPLRESGKINAEFFVLSNPDVVFEPGSIDAMVQCASRHPQAADIGPYIRQSDGSAYPSARQVPTIKNGVGHALFSSVWPSNPWSRAYRDNRDMTTERTAGWLSGSCLLVRWDAFEQIGGFDERYFMYMEDVDLGDRFGRAGFDNVFCPDAVITHAVGHAAGKHPEKMLPAHHDSAYRFQADRHPGLRYLPLRVLLRVGLKLRAVVAVAAAKFKLEHHHHHH” the protein production was “not failed”.
In the case of “MSNTVRAISPDITLFNKTLTFQEISQNTREAVIYIHGGAWNDPENTPNDFNQLANTIKSMDTESTVCQYSIEYRLSPEITNPRNLYDAVSNITRLVKEKGLTNINMVGHSVGATFIWQILAALKDPQEKMSEAQLQMLGLLQIVKRVFLLDGIYSLKELLVEYPEYDCFTRLAFPDGIQMYEEEPSRVMPYVKKALSRFSIDMHLVHSYSDELLTLRQTNCLISCLQDYQLSFKLYLDDLGLHNDVYKNGKVAKYIFDNIC”, the protein production is reported as “not failed”.

Reference: a protein production outcome set (Wang et al. 2014)
